Test results published in patent publication US20240270860A1.

Key:
Assay in all cases: peptide-array ELISA (CYS.S) [Continued]
[1] = molecular target: T1, 2TREQNRI2…
T1 sequence (peptide, 2 = Cys(ACM)): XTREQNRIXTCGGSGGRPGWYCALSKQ

2…2RPGWY2 = molecular target: T2, 2…2RPGWY2
T2 sequence (peptide, 2 = Cys(ACM)): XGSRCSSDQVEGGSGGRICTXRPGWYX

[2] = molecular target: T3, 2…2…
T3 sequence (peptide, 2 = Cys(ACM)): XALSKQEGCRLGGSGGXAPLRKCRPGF

[3] = molecular target: T4, 2…
T4 sequence (peptide, 2 = Cys(ACM)): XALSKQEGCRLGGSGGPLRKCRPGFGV

E2LS2…2RPGWY2AL = molecular target: T5, E2LS2…2RPGWY2AL
T5 sequence (peptide, 2 = Cys(ACM)): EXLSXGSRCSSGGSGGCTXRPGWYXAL

[4] = molecular target: T6, EGCRL2…
T6 sequence (peptide, 2 = Cys(ACM)): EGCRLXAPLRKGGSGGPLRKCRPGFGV

[5] = molecular target: T7, KQEGCRL2…
T7 sequence (peptide, 2 = Cys(ACM)): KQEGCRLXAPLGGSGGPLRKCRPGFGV

LS2…2RPGWY = molecular target: T8, LS2…2RPGWY
T8 sequence (peptide, 2 = Cys(ACM)): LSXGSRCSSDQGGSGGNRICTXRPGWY

[6] = molecular target: T9, NRI2…
T9 sequence (peptide, 2 = Cys(ACM)): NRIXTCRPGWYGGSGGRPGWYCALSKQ

PE2LS2…2RPGWY2AL = molecular target: T10, PE2LS2…2RPGWY2AL
T10 sequence (peptide, 2 = Cys(ACM)): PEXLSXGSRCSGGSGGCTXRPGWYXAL

PE2LS2…2RPGWY2A = molecular target: T11, PE2LS2…2RPGWY2A
T11 sequence (peptide, 2 = Cys(ACM)): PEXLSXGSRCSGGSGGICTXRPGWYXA

PE2LS2…2RPGWY = molecular target: T12, PE2LS2…2RPGWY
T12 sequence (peptide, 2 = Cys(ACM)): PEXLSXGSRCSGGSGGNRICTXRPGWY

[7] = molecular target: T13, QEGCRL2…2…
T13 sequence (peptide, 2 = Cys(ACM)): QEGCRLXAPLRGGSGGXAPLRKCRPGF

[8] = molecular target: T14, QEGCRL2…
T14 sequence (peptide, 2 = Cys(ACM)): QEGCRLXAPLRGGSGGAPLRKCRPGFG

[9] = molecular target: T15, QEGCRL2…; remark: listed apart in the source
T15 sequence (peptide, 2 = Cys(ACM)): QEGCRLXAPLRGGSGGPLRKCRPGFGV

[10] = molecular target: T16, QNRI2…
T16 sequence (peptide, 2 = Cys(ACM)): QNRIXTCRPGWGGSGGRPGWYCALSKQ

[11] = molecular target: T17, REQNRI2…
T17 sequence (peptide, 2 = Cys(ACM)): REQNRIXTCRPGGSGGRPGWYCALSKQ

S2…2RPGWY2AL = molecular target: T18, S2…2RPGWY2AL
T18 sequence (peptide, 2 = Cys(ACM)): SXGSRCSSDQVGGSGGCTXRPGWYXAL

S2…2RPGWY = molecular target: T19, S2…2RPGWY
T19 sequence (peptide, 2 = Cys(ACM)): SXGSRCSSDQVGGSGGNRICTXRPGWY

[12] = molecular target: T20, SKQEGCRL2…
T20 sequence (peptide, 2 = Cys(ACM)): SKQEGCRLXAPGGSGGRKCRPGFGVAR

VPE2LS2…2RPGWY2AL = molecular target: T21, VPE2LS2…2RPGWY2AL
T21 sequence (peptide, 2 = Cys(ACM)): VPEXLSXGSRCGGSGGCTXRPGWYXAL

VPE2LS2…2RPGWY2A = molecular target: T22, VPE2LS2…2RPGWY2A
T22 sequence (peptide, 2 = Cys(ACM)): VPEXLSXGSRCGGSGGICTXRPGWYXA

[13] = molecular target: T23, WY2…
T23 sequence (peptide, 2 = Cys(ACM)): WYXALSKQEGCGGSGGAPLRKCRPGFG

[14] = molecular target: T24, WY2…; remark: listed apart in the source
T24 sequence (peptide, 2 = Cys(ACM)): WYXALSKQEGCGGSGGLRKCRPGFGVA

[15] = molecular target: T25, Y2…
T25 sequence (peptide, 2 = Cys(ACM)): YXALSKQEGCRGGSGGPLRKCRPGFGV

[16] = molecular target: T26, Y2…; remark: listed apart in the source
T26 sequence (peptide, 2 = Cys(ACM)): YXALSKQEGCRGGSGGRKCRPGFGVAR

[17] = molecular target: T27, …2GGSGG2…
T27 sequence (peptide, 2 = Cys(ACM)): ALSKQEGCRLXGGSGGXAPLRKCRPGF

…2GGSGGCT2RPGWY2AL = molecular target: T28, …2GGSGGCT2RPGWY2AL
T28 sequence (peptide, 2 = Cys(ACM)): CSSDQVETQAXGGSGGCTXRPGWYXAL

…2GGSGGICT2RPGWY2A = molecular target: T29, …2GGSGGICT2RPGWY2A
T29 sequence (peptide, 2 = Cys(ACM)): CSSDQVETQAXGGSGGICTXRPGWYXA

…2RPGWY2AL [18] = molecular target: T30, …2RPGWY2AL
T30 sequence (peptide, 2 = Cys(ACM)): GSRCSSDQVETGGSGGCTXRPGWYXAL

…2RPGWY2AL [19] = molecular target: T31, …2RPGWY2AL; remark: listed apart in the source
T31 sequence (peptide, 2 = Cys(ACM)): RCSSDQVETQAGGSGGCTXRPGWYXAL

…2RPGWY2 = molecular target: T32, …2RPGWY2
T32 sequence (peptide, 2 = Cys(ACM)): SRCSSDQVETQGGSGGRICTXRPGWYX

…2…2RPGWY2 = molecular target: T33, …2…2RPGWY2
T33 sequence (peptide, 2 = Cys(ACM)): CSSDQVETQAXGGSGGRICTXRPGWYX

…2…2RPGWY = molecular target: T34, …2…2RPGWY
T34 sequence (peptide, 2 = Cys(ACM)): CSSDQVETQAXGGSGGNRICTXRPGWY

[20] = molecular target: T35, …2…
T35 sequence (peptide, 2 = Cys(ACM)): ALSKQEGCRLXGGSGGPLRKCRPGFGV

[21] = molecular target: T36, …2…; remark: listed apart in the source
T36 sequence (peptide, 2 = Cys(ACM)): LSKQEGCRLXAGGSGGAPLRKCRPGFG

- Raw luminescence data [1]: 101
- Raw luminescence data (2…2RPGWY2): 614
- Raw luminescence data [2]: 439
- Raw luminescence data [3]: 414
- Raw luminescence data (E2LS2…2RPGWY2AL): 605
- Raw luminescence data [4]: 450
- Raw luminescence data [5]: 457
- Raw luminescence data (LS2…2RPGWY): 822
- Raw luminescence data [6]: 426
- Raw luminescence data (PE2LS2…2RPGWY2AL): 697
- Raw luminescence data (PE2LS2…2RPGWY2A): 542
- Raw luminescence data (PE2LS2…2RPGWY): 928
- Raw luminescence data [7]: 570
- Raw luminescence data [8]: 340
- Raw luminescence data [9]: 558
- Raw luminescence data [10]: 240
- Raw luminescence data [11]: 228
- Raw luminescence data (S2…2RPGWY2AL): 538
- Raw luminescence data (S2…2RPGWY): 666
- Raw luminescence data [12]: 430
- Raw luminescence data (VPE2LS2…2RPGWY2AL): 483
- Raw luminescence data (VPE2LS2…2RPGWY2A): 540
- Raw luminescence data [13]: 534
- Raw luminescence data [14]: 336
- Raw luminescence data [15]: 381
- Raw luminescence data [16]: 463
- Raw luminescence data [17]: 560
- Raw luminescence data (…2GGSGGCT2RPGWY2AL): 265
- Raw luminescence data (…2GGSGGICT2RPGWY2A): 454
- Raw luminescence data (…2RPGWY2AL [18]): 464
- Raw luminescence data (…2RPGWY2AL [19]): 319
- Raw luminescence data (…2RPGWY2): 568
- Raw luminescence data (…2…2RPGWY2): 597
- Raw luminescence data (…2…2RPGWY): 487
- Raw luminescence data [20]: 446
- Raw luminescence data [21]: 253
B1: antagonistic TNFR2 antibody TNFRAB1 (antibody, V domains shown)
VH: EVQLQESGGGLVKPGGSLKLSCAASGFTFSSYVMSWVRQTPEKRLEWVATISSGGSYTYYPDSVKGRFTISRDNAKNTLYLQMSSLRSEDTAMYYCARQRVDGYSSYWYFDVWGAGTAVTVSS
VL: DIVLTQSPAIMSASPGEKVTITCSASSSVYYMYWFQQKPGTSPKLWIYSTSNLASGVPVRFSGSGSGTSYSLTISRMEAEDAATYYCQQRRNYPYTFGGGTKLEIKR
